{"source": "patent US20230241113A1", "about": "(IMMATICS BIOTECHNOLOGIES, published 2023)", "data": [{"biological_target": "T1, HLA-A*02:01 (human)", "T1 construct": "captured on streptavidin plates, detected with anti-β2m; also called peptide-receptive MHC molecules; MHC class I", "assay": "UV-ligand exchange + anti-β2m ELISA; exchange yield grade: ≥10% +, ≥20% ++, ≥50 +++, ≥75% ++++", "protocol": "The individual peptide-MHC complexes were produced by UV-ligand exchange, where a UV-sensitive peptide is cleaved upon UV-irradiation and exchanged with the peptide of interest as analyzed. Only peptide candidates that can effectively bind and stabilize the peptide-receptive MHC molecules prevent dissociation of the MHC complexes. To determine the yield of the exchange reaction, an ELISA was performed based on the detection of the light chain (β2m) of stabilized MHC complexes. The assay was performed as generally described in Rodenko et al. (Rodenko et al., 2006).\n96 well MAXISorp plates (NUNC) were coated over night with 2 μg/ml streptavidin in PBS at room temperature, washed 4× and blocked for 1 h at 37° C. in 2% BSA containing blocking buffer. Refolded HLA-A*02:01/MLA-001 monomers served as standards, covering the range of 15-500 ng/ml. Peptide-MHC monomers of the UV-exchange reaction were diluted 100 fold in blocking buffer. Samples were incubated for 1 h at 37° C., washed four times, incubated with 2 μg/ml HRP conjugated anti-β2m for 1 h at 37° C., washed again and detected with TMB solution that is stopped with […]. Absorption was measured at 450 nm. Candidate peptides that show a high exchange yield (preferably higher than 50%, most preferred higher than 75%) are generally preferred for a generation and production of antibodies or fragments thereof, and/or T cell receptors or fragments thereof, as they show sufficient avidity to the MHC molecules and prevent dissociation of the MHC complexes.", "units": {"peptide exchange yield": "%"}, "values": [{"binder": "VLISLPGKV (also called VLISLPGKV)", "note": "[altORF-018]", "peptide exchange yield": "20 to 50"}, {"binder": "SQLEKPETA (also called SQLEKPETA)", "note": "[altORF-026]", "peptide exchange yield": "50 to 75"}, {"binder": "LLNVEPAGA (also called LLNVEPAGA)", "note": "[altORF-032]", "peptide exchange yield": "≥ 75"}, {"binder": "LAFVSHVLI (also called LAFVSHVLI)", "note": "[altORF-050]", "peptide exchange yield": "20 to 50"}, {"binder": "WITPVIPAL (also called WITPVIPAL)", "note": "[altORF-040]", "peptide exchange yield": "≥ 75"}, {"binder": "FLDEGSLLRL (also called FLDEGSLLRL)", "note": "[altORF-011]", "peptide exchange yield": "≥ 75"}, {"binder": "VVLPIVITL (also called VVLPIVITL)", "note": "[altORF-029]", "peptide exchange yield": "≥ 75"}, {"binder": "IAAGVPNTDA (also called IAAGVPNTDA)", "note": "[altORF-025]", "peptide exchange yield": "20 to 50"}, {"binder": "FTLPFLVNL (also called FTLPFLVNL)", "note": "[altORF-038]", "peptide exchange yield": "≥ 75"}, {"binder": "KILDEFYNV (also called KILDEFYNV)", "note": "[altORF-035]", "peptide exchange yield": "≥ 75"}, {"binder": "LMASEGIWESSL (also called LMASEGIWESSL)", "note": "[altORF-039]", "peptide exchange yield": "50 to 75"}, {"binder": "FLLVPSPIWQL (also called FLLVPSPIWQL)", "note": "[altORF-001]", "peptide exchange yield": "≥ 75"}, {"binder": "VLWDLRPSSLI (also called VLWDLRPSSLI)", "note": "[altORF-015]", "peptide exchange yield": "≥ 75"}, {"binder": "GLLTQVHIL (also called GLLTQVHIL)", "note": "[altORF-049]", "peptide exchange yield": "≥ 75"}, {"binder": "NLVMPLLHI (also called NLVMPLLHI)", "note": "[altORF-013]", "peptide exchange yield": "20 to 50"}, {"binder": "YLGDSHVLL (also called YLGDSHVLL)", "note": "[altORF-002]", "peptide exchange yield": "≥ 75"}, {"binder": "GLSPDQVFL (also called GLSPDQVFL)", "note": "[altORF-052]", "peptide exchange yield": "≥ 75"}, {"binder": "SLLDKLSGI (also called SLLDKLSGI)", "note": "[altORF-008]", "peptide exchange yield": "≥ 75"}, {"binder": "ISVLNLSAI (also called ISVLNLSAI)", "note": "[altORF-023]", "peptide exchange yield": "20 to 50"}, {"binder": "WLIPRQLAAA (also called WLIPRQLAAA)", "note": "[altORF-042]", "peptide exchange yield": "≥ 75"}, {"binder": "ALLDVLVKL (also called ALLDVLVKL)", "note": "[COLPDG-001]", "peptide exchange yield": "≥ 75"}, {"binder": "ALLPGVPGL (also called ALLPGVPGL)", "note": "[altORF-045]", "peptide exchange yield": "≥ 75"}, {"binder": "FVFISPSFL (also called FVFISPSFL)", "note": "[altORF-019]", "peptide exchange yield": "50 to 75"}, {"binder": "FASERPPSV (also called FASERPPSV)", "note": "[altORF-031]", "peptide exchange yield": "≥ 75"}, {"binder": "AIWSTILIA (also called AIWSTILIA)", "note": "[altORF-041]", "peptide exchange yield": "20 to 50"}, {"binder": "GLASYLDRV (also called GLASYLDRV)", "note": "[altORF-048]", "peptide exchange yield": "≥ 75"}, {"binder": "LLWEFPSMA (also called LLWEFPSMA)", "note": "[altORF-027]", "peptide exchange yield": "≥ 75"}, {"binder": "ALLDAEQSPVAL (also called ALLDAEQSPVAL)", "note": "[altORF-014]", "peptide exchange yield": "≥ 75"}, {"binder": "FLWDPRDVVL (also called FLWDPRDVVL)", "note": "[altORF-047]", "peptide exchange yield": "≥ 75"}, {"binder": "MLAEIHPKA (also called MLAEIHPKA)", "note": "[altORF-046]", "peptide exchange yield": "≥ 75"}, {"binder": "KLLDFSTRI (also called KLLDFSTRI)", "note": "[NUDCD2-001]", "peptide exchange yield": "≥ 75"}, {"binder": "KMMTFFQGL (also called KMMTFFQGL)", "note": "[altORF-016]", "peptide exchange yield": "≥ 75"}, {"binder": "LVWEVVESV (also called LVWEVVESV)", "note": "[altORF-003]", "peptide exchange yield": "≥ 75"}, {"binder": "SLYDVPVGA (also called SLYDVPVGA)", "note": "[altORF-020]", "peptide exchange yield": "≥ 75"}, {"binder": "AMVEIIPKV (also called AMVEIIPKV)", "note": "[altORF-044]", "peptide exchange yield": "≥ 75"}, {"binder": "YIYEDEVRL (also called YIYEDEVRL)", "note": "[altORF-037]", "peptide exchange yield": "≥ 75"}, {"binder": "MLLPWLPKL (also called MLLPWLPKL)", "note": "[altORF-017]", "peptide exchange yield": "≥ 75"}, {"binder": "YVLMTSLLL (also called YVLMTSLLL)", "note": "[altORF-055]", "peptide exchange yield": "≥ 75"}, {"binder": "GLEVLDALL (also called GLEVLDALL)", "note": "[altORF-021]", "peptide exchange yield": "20 to 50"}, {"binder": "TISISLSSV (also called TISISLSSV)", "note": "[altORF-051]", "peptide exchange yield": "≥ 75"}, {"binder": "IITNLIVNI (also called IITNLIVNI)", "note": "[altORF-054]", "peptide exchange yield": "50 to 75"}, {"binder": "LLRLTLLPL (also called LLRLTLLPL)", "note": "[altORF-028]", "peptide exchange yield": "20 to 50"}, {"binder": "HLDSMNVSI (also called HLDSMNVSI)", "note": "[altORF-010]", "peptide exchange yield": "≥ 75"}, {"binder": "MIISHRALEL (also called MIISHRALEL)", "note": "[altORF-056]", "peptide exchange yield": "20 to 50"}, {"binder": "MVQQEKLFV (also called MVQQEKLFV)", "note": "[altORF-053]", "peptide exchange yield": "50 to 75"}, {"binder": "VLLNSNYPV (also called VLLNSNYPV)", "note": "[altORF-033]", "peptide exchange yield": "≥ 75"}, {"binder": "ALYHQSPLL (also called ALYHQSPLL)", "note": "[altORF-043]", "peptide exchange yield": "≥ 75"}, {"binder": "ALLPHAPEAV (also called ALLPHAPEAV)", "note": "[altORF-009]", "peptide exchange yield": "50 to 75"}, {"binder": "VLSVSAVLGA (also called VLSVSAVLGA)", "note": "[altORF-030]", "peptide exchange yield": "50 to 75"}, {"binder": "FQVTRTTGV (also called FQVTRTTGV)", "note": "[altORF-034]", "peptide exchange yield": "≥ 75"}, {"binder": "LLIEVSEEL (also called LLIEVSEEL)", "note": "[altORF-012]", "peptide exchange yield": "≥ 75"}, {"binder": "SLSAWLPSL (also called SLSAWLPSL)", "note": "[altORF-036]", "peptide exchange yield": "≥ 75"}, {"binder": "TLTSLNILL (also called TLTSLNILL)", "note": "[altORF-022]", "peptide exchange yield": "≥ 75"}, {"binder": "KLWTSLVNL (also called KLWTSLVNL)", "note": "[altORF-024]", "peptide exchange yield": "≥ 75"}]}]}
